Results taken from article PMC8809517, “Cofactor-independent RNA editing by a synthetic S-type PPR protein”.
Changes are numbered by the printed parent chain.

T1: GFP-9S library array, motif 4 ND N98G;D124Q (synthetic construct, N98G;D124Q)
T1 chain: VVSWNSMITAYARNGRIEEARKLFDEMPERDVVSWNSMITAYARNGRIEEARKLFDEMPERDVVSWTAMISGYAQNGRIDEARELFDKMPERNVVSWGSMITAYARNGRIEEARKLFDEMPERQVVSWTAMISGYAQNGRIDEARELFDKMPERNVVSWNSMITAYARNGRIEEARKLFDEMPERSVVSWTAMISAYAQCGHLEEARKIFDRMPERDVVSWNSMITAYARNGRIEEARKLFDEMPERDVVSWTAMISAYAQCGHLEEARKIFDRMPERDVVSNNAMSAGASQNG

T2: GFP-9S library array, motif 4 ND N98I (synthetic construct, N98I)
T2 chain: T1 chain with G98I, Q124D

T3: GFP-9S library array, motif 4 ND D124I (synthetic construct, D124I)
T3 chain: T1 chain with G98N, Q124I

T4: GFP-9S library array, motif 4 ND N98V;D124A (synthetic construct, N98V;D124A)
T4 chain: T1 chain with G98V, Q124A

T5: GFP-9S library array, motif 4 ND N98E;D124P (synthetic construct, N98E;D124P)
T5 chain: T1 chain with G98E, Q124P


Key:
Assay in all cases: high-throughput RNA pulldown from lysate on Ni-NTA beads; HRP: 50 mM Tris pH 8, 150 mM NaCl, 1 mM beta-mercaptoethanol, 50 ug/ml BSA, 3 ug/ml yeast RNA, 0.5% heparin; ITC and FP: Tris pH 8, 200 mM KCl, 5% glycerol; MST: 50 mM Tris pH 8, 200 mM NaCl, 1 mM DTT, BSA, heparin, 0.05% Tween 20
Conditions in all cases: tags: N-terminal His-eGFP
[1] = molecular target: T1, GFP-9S library array, motif 4 ND …
[2] = molecular target: T2, GFP-9S library array, motif 4 ND N98I
[3] = molecular target: T3, GFP-9S library array, motif 4 ND D124I
[4] = molecular target: T4, GFP-9S library array, motif 4 ND …
[5] = molecular target: T5, GFP-9S library array, motif 4 ND …

Binder | Kd ([1]; label: 5' Cy5) | Kd ([2]; label: 5' Cy5) | Kd ([3]; label: 5' Cy5) | Kd ([4]; label: 5' Cy5) | Kd ([5]; label: 5' Cy5) | Kd ([1]; label: 5' IRDye 800CW) | Kd ([2]; label: 5' IRDye 800CW) | Kd ([3]; label: 5' IRDye 800CW) | Kd ([4]; label: 5' IRDye 800CW) | Kd ([5]; label: 5' IRDye 800CW)
AUUAGACGUGA (ssRNA) [Cy5-rpoA-G] | 109 nM | 127 nM | 86.2 nM | 74.1 nM | 102 nM |  |  |  |  | 
AUUAAACGUGA (ssRNA) [IR-rpoA-A] |  |  |  |  |  | 150 nM | 175 nM | 184 nM | 80.7 nM | 264 nM
AUUACACGUGA (ssRNA) [Cy5-rpoA] | 96.6 nM | 153 nM | 53.8 nM | 64.4 nM | 130 nM |  |  |  |  | 
AUUAUACGUGA (ssRNA) [IR-rpoA-U] |  |  |  |  |  | 142 nM | 53.5 nM | 26.7 nM | 71.8 nM | 271 nM
